B1: anti-Cry1Ac nanobody Nb61 (VHH)
VHH: QVQLQESGGGSVQAGGSLRLSCEASENTYNSVYMAWFRQAPEKEREGVAVLSTGGGRTYYTDSVKGRFTISRDNAKNMVYLQMNSLKPDDTAMYYCAATYTGDSYGPSLYYLTPGRYEYWGQGTQVTVSS
B2: anti-Cry1Ac nanobody Nb44 (VHH)
VHH: QVQLQESGGGSVQAGGSLRLSCATSGLTYSARITWFRQAPEKEREGVATFSTGSGSTGYADSVKGRFTISQDNAKNTLYLQMNNLKPEDTAMYYCAADTSTSWRDIVLVARYKYWGQGTQVTVSS
B3: anti-Cry1Ac nanobody Nb58 (VHH)
VHH: QVQLQESGGGLVQPGGSLRLSCTASGFTFSSYEMDWFRRAPGKELEWVAGITSGGEGTSYRNSVKGRFTISRDNAKNTLYLHLNSLKNEDTAMYYCAKDRRALGEVGQGTQVTVSS
B4: anti-Cry1Ac nanobody Nb59 (VHH)
VHH: QVQLQESGGGLVQPGGSLRLSCAASGFTFRDYYMTWVRQAPGQGLEWVSSISFGGGRTYYADSVKGRFTISRDNPENTLYLQLSNLKTEDTAMYYCARGRPNADYDRRGQGTQVTVSS

Biological target: T1, Bacillus thuringiensis (Bt) Cry1Ac toxin (Bacillus thuringiensis, UniProt P05068 1-1178)
Assay: SPR

T1 sequence (P05068 whole entry): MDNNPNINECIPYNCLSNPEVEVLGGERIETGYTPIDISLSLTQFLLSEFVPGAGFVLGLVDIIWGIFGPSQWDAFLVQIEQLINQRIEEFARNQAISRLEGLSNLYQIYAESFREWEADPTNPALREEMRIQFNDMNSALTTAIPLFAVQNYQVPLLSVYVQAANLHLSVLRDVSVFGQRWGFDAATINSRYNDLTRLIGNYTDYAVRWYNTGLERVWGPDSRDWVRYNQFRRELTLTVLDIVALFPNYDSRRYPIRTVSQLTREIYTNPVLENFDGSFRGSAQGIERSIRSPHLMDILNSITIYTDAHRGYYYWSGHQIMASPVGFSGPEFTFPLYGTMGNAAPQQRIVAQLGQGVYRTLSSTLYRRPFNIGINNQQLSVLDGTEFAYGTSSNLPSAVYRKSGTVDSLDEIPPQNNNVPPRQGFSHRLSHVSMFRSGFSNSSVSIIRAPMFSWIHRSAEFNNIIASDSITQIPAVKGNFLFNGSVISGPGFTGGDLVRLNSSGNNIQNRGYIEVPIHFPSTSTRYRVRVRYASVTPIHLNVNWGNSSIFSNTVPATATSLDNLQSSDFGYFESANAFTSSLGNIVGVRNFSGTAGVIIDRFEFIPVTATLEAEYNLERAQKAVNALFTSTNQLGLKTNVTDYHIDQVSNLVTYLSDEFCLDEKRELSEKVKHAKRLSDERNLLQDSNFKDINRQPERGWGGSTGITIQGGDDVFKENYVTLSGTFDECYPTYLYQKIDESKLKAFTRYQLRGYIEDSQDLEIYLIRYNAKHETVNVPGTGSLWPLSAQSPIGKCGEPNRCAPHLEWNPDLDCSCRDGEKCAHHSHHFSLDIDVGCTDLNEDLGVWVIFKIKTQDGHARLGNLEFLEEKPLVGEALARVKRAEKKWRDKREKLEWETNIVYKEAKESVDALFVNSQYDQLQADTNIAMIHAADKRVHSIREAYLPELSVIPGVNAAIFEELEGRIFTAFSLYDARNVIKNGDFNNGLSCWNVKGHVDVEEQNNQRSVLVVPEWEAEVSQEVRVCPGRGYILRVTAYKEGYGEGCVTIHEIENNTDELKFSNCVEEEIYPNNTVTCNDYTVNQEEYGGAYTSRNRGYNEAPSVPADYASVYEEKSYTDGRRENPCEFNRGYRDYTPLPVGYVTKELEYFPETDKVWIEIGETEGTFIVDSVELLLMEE

| Binder | koff [s⁻¹] |
| --- | --- |
| B1 | 0.00084 |
| B2 | 0.0014 |
| B3 | 0.00151 |
| B4 | 0.00178 |

Biological target: T1, Bacillus thuringiensis (Bt) Cry1Ac toxin
Assay: SPR
Remark: another data set of the same source

| Binder | Kd [nM] |
| --- | --- |
| B1 | 60.9 |
| B2 | 6.89 |
| B3 | 23.2 |
| B4 | 18 |
